The data set concerns the molecule itself. The experiment in a line: crystal structure.

B1: human CEACAM1 IgV domain (GST tag removed) (domain or fragment)
chain: QLTTESMPFNVAEGKEVLLLVHNLPQQLFGYSWYKGERVDGNRQIVGYAIGTQQATPGPANSGRETIYPNASLLIQNVTQNDTGFYTLQVIKSDLVNEEATGQFHVY
With B1, the binding result is reported as “binds”.
